Measurements from PMC12238353 (Scientific Reports, 2025).

How the values were obtained:
[1] = target: His-tagged IgD (SpyTagged HAPPID1: human anti-Phl p 7 IgD 102.1F10 with SpyTag003 and His6-tag on the heavy chain) (human) (UniProt P01880); test: SPR; His-tagged IgD (100 nM) captured on an anti-His chip (CM5); two-fold dilution series of TEV-cleaved Nbs, 200 nM to 1.6 nM, flowed over; Biacore T200, 25 °C, 10 mM HEPES pH 7.4, 150 mM NaCl, 0.05% P20; koff from mono- or biphasic decay, kon from kobs against concentration, KD = koff/kon
[2] = target: IgD-Fc (Fc region of human IgD, SpyTagged) (human); test: SEC; complexes of Nb and IgD-Fc with IgD-Fc at 2 µM, incubated overnight at 4 °C; Superdex 200 Increase 10/300 GL in HBS-az at 10 °C
[3] = target: IgD on Namalwa B cells (membrane-bound IgD) (human (endogenous in Namalwa)) (UniProt P01880); test: flow cytometry on cells; Namalwa cells incubated with 1 µM AF488-labeled Nb:Catcher fusion in PBS pH 7.3, 1% BSA, 0.1% NaN3, 1 h at 4 °C (1 µM, 500 nM and 250 nM for titration); median fluorescence intensity
IgD on Namalwa B cells (membrane-bound IgD) (human (endogenous in Namalwa)), sequence (P01880 whole entry, looked up, the tested form may be a part): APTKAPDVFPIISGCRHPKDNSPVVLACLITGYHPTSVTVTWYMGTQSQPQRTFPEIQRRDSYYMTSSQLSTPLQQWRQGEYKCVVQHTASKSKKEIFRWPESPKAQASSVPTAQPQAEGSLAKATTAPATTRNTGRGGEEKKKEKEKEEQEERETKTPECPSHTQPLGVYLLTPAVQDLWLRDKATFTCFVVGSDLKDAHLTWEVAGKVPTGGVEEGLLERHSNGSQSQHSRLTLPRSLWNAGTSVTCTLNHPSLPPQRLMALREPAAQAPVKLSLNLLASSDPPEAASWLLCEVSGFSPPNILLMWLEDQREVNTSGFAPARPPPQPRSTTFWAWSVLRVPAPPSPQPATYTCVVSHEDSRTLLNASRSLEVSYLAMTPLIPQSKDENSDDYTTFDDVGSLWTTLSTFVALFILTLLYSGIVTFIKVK

[4] = target: T1, Phl p 7 (antigen of HAPPID1) on an SA chip (Phleum pratense (common timothy), UniProt O82040); test: SPR; IgD (HAPPID1) captured by its antigen Phl p 7 on an SA chip; 25 nM aδNb408 or aδNb408-Nb pairs flowed over; 25 °C, running buffer with 5 mM CaCl2; conditions: both partners purified
T1 construct: Held on a streptavidin chip; also called SA-Phl p 7 chip
T1 sequence (O82040 whole entry): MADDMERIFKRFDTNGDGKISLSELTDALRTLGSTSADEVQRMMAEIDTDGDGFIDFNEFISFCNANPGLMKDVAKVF

B1: anti-IgD Nb 107 (aδNb107), TEV-cleaved (VHH)
VHH: QVQLQESGGGLVQAGASLRLSCTASERTFSPYAMGWFRQAPGREREVIASIFWTGGNTGYADSVKGRFTISRDTAKNTVYLQMSNLKPEDTAVYYCGARTSASAPIYGLWGQGTQVTVSS
**Q.** With B1 as the binder, how does the KD1 [1] read?
**A.** Its KD1 is 3.2 nM.

**Q.** And the KD2 [1]?
**A.** The KD2 was 22 nM.

**Q.** What about the koff1 [1] of the same binder?
**A.** The koff1 was 0.00066 s⁻¹.

**Q.** And the koff2 [1]?
**A.** The koff2 was 0.0046 s⁻¹.

**Q.** And the kon [1]?
**A.** The kon was 210000 M⁻¹ s⁻¹.

B2: anti-IgD Nb 408 (aδNb408), TEV-cleaved (VHH)
VHH: QVQLQESGGGLVQAGDSLRLSCVASGRSISNDAMAWFRQAPGKEREFVAAITWRYSNTHYSDSVKDRFTISRDNAKNTVYLQMNSLKPEDTADYYCAADRRGTGASSYSRDYDYWGQGTQVTVSS
**Q.** What does the source list for B2?
**A.** KD1 [1]: 0.89 nM; KD2 [1]: 5.2 nM; koff1 [1]: 0.00074 s⁻¹; koff2 [1]: 0.0043 s⁻¹; kon [1]: 820000 M⁻¹ s⁻¹

B3: anti-IgD Nb 571 (aδNb571), TEV-cleaved (VHH)
VHH: QVQLQESGGGLVQPGGSLRLSCAASGTPFSASVMAWYRQAPGKERVWVATITSDSMTYYADSVNGRFTISRDNAKSTVYLQMNSLKPEDTAAYICRHAASASWGQGTQVTVSS
**Q.** Which results are given for B3?
**A.** Kd [1]: 0.66 nM; koff [1]: 0.0012 s⁻¹; kon [1]: 1.8e+06 M⁻¹ s⁻¹

B4: His-tagged anti-IgD Nb 107 (aδNb107) (VHH)
VHH: B1 VHH
**Q.** For B4, which stoichiometry N [2] is on record?
**A.** Its stoichiometry N is 2 Nb:IgD.

B5: His-tagged anti-IgD Nb 367 (aδNb367) (VHH)
VHH: QVQLQESGGGLVQPGGSLRLACAASGFSLSTYTMSWVRQSPGKGLEWVSTITSDGGWTSYRDSVKGRFTISRDNAKNTLYLQMNSLNPEDTAVYYCRRGVGVVRGERPGGQGTQVTVSS
**Q.** How did the stoichiometry N [2] turn out when B5 was run?
**A.** The stoichiometry N was 2 Nb:IgD.

B6: His-tagged anti-IgD Nb 408 (aδNb408) (VHH)
VHH: B2 VHH
**Q.** How did the stoichiometry N [2] turn out when B6 was run?
**A.** The stoichiometry N was 2 Nb:IgD.

B7: His-tagged anti-IgD Nb 571 (aδNb571) (VHH)
VHH: B3 VHH
**Q.** B7 was tested. Which stoichiometry N [2] did it give?
**A.** Its stoichiometry N is 1 Nb:IgD.

B8: AF488-labeled monovalent aδNb107 (SpyTagged aδNb107 reacted with AF488-labeled SpyCatcher003) (VHH)
VHH: B1 VHH
**Q.** Which MFI [3] does the source give for B8 here?
**A.** The MFI was 662.

B9: AF488-labeled monovalent aδNb367 (SpyTagged aδNb367 reacted with AF488-labeled SpyCatcher003) (VHH)
VHH: B5 VHH
**Q.** B9 was tested. Which MFI [3] did it give?
**A.** The MFI was 1450.

B10: AF488-labeled monovalent aδNb408 (SpyTagged aδNb408 reacted with AF488-labeled SpyCatcher003) (VHH)
VHH: B2 VHH
**Q.** Which MFI [3] does the source give for B10 here?
**A.** The MFI was 1340.

B11: AF488-labeled monovalent aδNb571 (SpyTagged aδNb571 reacted with AF488-labeled SpyCatcher003) (VHH)
VHH: B3 VHH
**Q.** B11 was tested. Which MFI [3] did it give?
**A.** Its MFI is 921.

B12: anti-IgD Nb 367 (aδNb367), TEV-cleaved (VHH)
VHH: B5 VHH
**Q.** How did the Kd [1] turn out when B12 was run?
**A.** The Kd was 2.4 nM.

**Q.** And the koff [1]?
**A.** The koff was 0.00047 s⁻¹.

**Q.** And the kon [1]?
**A.** The kon was 200000 M⁻¹ s⁻¹.

B13: human anti-Phl p 7 IgD 102.1F10 (HAPPID1) (antibody, V domains shown)
VH: QVQLVQSGAEVRNPGASVKVSCKASGYTFTSYAIHWVRQAPGHRLEWVGRINTDNGNTKYSQKFHGRVALSRDTSASTTYMDLSSLNSEDTAVYYCARAFYYSSGVMFDSWGQGALVTVSS
VL: QSALTQPPSVSGAPGQRVSISCTGGSSNFGAGYDVHWYQQLPATAPKLLIYGNNNRPSGVPDRFSGSKSGTSASLAITGLQAEDEGDYFCQSFDTSLSGWIFGGGTKLTVL
notes: heavy-chain variable domain of the human anti-Phl p 7 antibody 102.1F10; pVITRO1-HAPPID1 at Addgene; human immunoglobulin heavy constant delta, secreted form; UniProt P01880-1 is printed for the IgD-Fc used in this study; light chain of 102.1F10; also called full-length IgD; source: stably transfected FreeStyle 293-F cells; copies: 2 + 2
**Q.** Does B13 bind [4]?
**A.** Result: binds
